Data on one molecule can be found in patent US20050003397A1.

In the assay the target is BAT monoclonal antibody. Briefly: competition phage ELISA; BAT (6 µg/ml) pre-incubated with increasing synthetic Peptide A, binding to immobilized Peptide A phage read. In general terms: In an ELISA, binding on a coated surface is turned into a signal by an enzyme label.

As a reminder, the IC50 is the concentration that gives 50% inhibition. High values mean weaker potency, low ones greater potency.

As for PRRIKPRKIMLQ [Peptide A (synthetic peptide of SEQ ID NO 1)], the IC50 was 660 nM.
